Results reported in patent publication US20240400708A1.
Where a chain is given by its changes, count along the chain named. Names may count otherwise.

B1: feline IgG1a mutant ID No. 283: S252Y, Q311W, D312P, L314K, S434Y (antibody, part only; not given: Variable domains, not shown: another chain or arm of the molecule)
constant: ASTTAPSVFPLAPSCGTTSGATVALACLVLGYFPEPVTVSWNSGALTSGVHTFPAVLQASGLYSLSSMVTVPSSRWLSDTFTCNVAHPPSNTKVDKTVRKTDHPPGPKPCDCPKCPPPEMLGGPSIFIFPPKPKDTLYISRTPEVTCLVVDLGPDDSDVQITWFVDNTQVYTAKTSPREEQFNSTYRVVSVLPILHWPWKKGKEFKCKVNSKSLPSPIERTISKAKGQPHEPQVYVLPPAQEELSRNKVSVTCLIKSFHPPDIAVEWEITGQPEPENNYRTTPPQLDSDGTYFVYSKLSVDRSHWQRGNTYTCSVSHEALHYHHTQKSLTQSPGK
B2: feline IgG1a mutant ID No. 310: P247V, T250Q, S252H (antibody, part only; not given: variable domains and light chain, not shown: another chain or arm of the molecule; small tags and cut ends)
constant: B1 constant with P133V, T136Q, Y138H, W197Q, P198D, K200L, Y322S
B3: feline IgG1a mutant ID No. 316: S428M, A431K (antibody, part only; not given: Variable domains, not shown: another chain or arm of the molecule)
constant: B1 constant with Y138S, W197Q, P198D, K200L, S316M, A319K, Y322S
B4: feline IgG1a mutant ID No. 301: S428Y, Q311W, L314K, S434Y (antibody, part only; not given: Variable domains, not shown: another chain or arm of the molecule)
constant: B1 constant with Y138S, P198D, S316Y
B5: feline IgG1a mutant ID No. 319: S428Y, D312P, A431K, S434P (antibody, part only; not given: variable domains, not shown: another chain or arm of the molecule)
constant: B1 constant with Y138S, W197Q, K200L, S316Y, A319K, Y322P
B6: feline IgG1a mutant ID No. 299: S428Y, Q311W, D312P, L314K, S434Y (antibody, part only; not given: variable domains and light chain, not shown: another chain or arm of the molecule)
constant: B1 constant with Y138S, S316Y
B7: feline IgG1a mutant ID No. 336: S252Y, S428M, S434F, A431K (antibody, part only; not given: Variable domains, not shown: another chain or arm of the molecule)
constant: B1 constant with W197Q, P198D, K200L, S316M, A319K, Y322F
B8: feline IgG1a mutant ID No. 324: S428Y, D312P, S434Y, D399M, T403R (antibody, part only; not given: Variable domains, not shown: another chain or arm of the molecule)
constant: B1 constant with Y138S, W197Q, K200L, D287M, T291R, S316Y
B9: feline IgG1a mutant ID No. 354: S252Y, S428M, S434F, T250Q (antibody, part only; not given: variable domains and light chain, not shown: another chain or arm of the molecule)
constant: B1 constant with T136Q, W197Q, P198D, K200L, S316M, Y322F
B10: feline IgG1a mutant ID No. 346: S252Y, S428M, S434F, G402R (antibody, part only; not given: Variable domains, not shown: another chain or arm of the molecule)
constant: B1 constant with W197Q, P198D, K200L, G290R, S316M, Y322F
B11: feline IgG1a mutant ID No. 291: S252Y, S428Y, Q311W, D312P, L314K (antibody, part only; not given: Variable domains, not shown: another chain or arm of the molecule; small tags and cut ends)
constant: B1 constant with S316Y, Y322S
B12: feline IgG1a mutant ID No. 303: A431K, S434Y (antibody, part only; not given: variable domains and light chain, not shown: another chain or arm of the molecule)
constant: B1 constant with Y138S, W197Q, P198D, K200L, A319K
B13: feline IgG1a mutant ID No. 341: S252Y, S428M, S434F, D312A (antibody, part only; not given: Variable domains, not shown: another chain or arm of the molecule; small tags and cut ends)
constant: B1 constant with W197Q, P198A, K200L, S316M, Y322F
B14: feline IgG1a mutant ID No. 317: S428M, A431K, S434P (antibody, part only; not given: variable domains and light chain, not shown: another chain or arm of the molecule)
constant: B1 constant with Y138S, W197Q, P198D, K200L, S316M, A319K, Y322P
B15: feline IgG1a mutant ID No. 344: S252Y, S428M, S434F, D401R (antibody, part only; not given: Variable domains, not shown: another chain or arm of the molecule)
constant: B1 constant with W197Q, P198D, K200L, D289R, S316M, Y322F
B16: feline IgG1a mutant ID No. 290: S252Y, S428Y, Q311W, D312P (antibody, part only; not given: Variable domains, not shown: another chain or arm of the molecule; small tags and cut ends)
constant: B1 constant with K200L, S316Y, Y322S
B17: feline IgG1a mutant ID No. 325: S428Y, D312P, S434Y, D401R, T403R (antibody, part only; not given: Variable domains, not shown: another chain or arm of the molecule)
constant: B1 constant with Y138S, W197Q, K200L, D289R, T291R, S316Y
B18: feline IgG1a mutant ID No. 329: S428Y, D312P, S434Y, Q311H, L314K (antibody, part only; not given: Variable domains, not shown: another chain or arm of the molecule; small tags and cut ends)
constant: B1 constant with Y138S, W197H, S316Y
B19: feline IgG1a mutant ID No. 296: S252Y, S428Y, Q311W, S434Y (antibody, part only; not given: Variable domains, not shown: another chain or arm of the molecule; small tags and cut ends)
constant: B1 constant with P198D, K200L, S316Y
B20: feline IgG1a mutant ID No. 335: T250Q, S252H (antibody, part only; not given: Variable domains, not shown: another chain or arm of the molecule)
constant: B1 constant with T136Q, Y138H, W197Q, P198D, K200L, Y322S
B21: feline IgG1a mutant ID No. 285: S252Y, Q311W, L314K, S434Y (antibody, part only; not given: Variable domains, not shown: another chain or arm of the molecule)
constant: B1 constant with P198D
B22: feline IgG1a mutant ID No. 339: S252Y, S428M, S434F, P247L (antibody, part only; not given: Variable domains, not shown: another chain or arm of the molecule)
constant: B1 constant with P133L, W197Q, P198D, K200L, S316M, Y322F
B23: feline IgG1a mutant ID No. 342: S252Y, S428M, S434F, D312P (antibody, part only; not given: Variable domains, not shown: another chain or arm of the molecule; small tags and cut ends)
constant: B1 constant with W197Q, K200L, S316M, Y322F
B24: feline IgG1a mutant ID No. 292: S252Y, S428Y, Q311W, D312P, L314K, S434Y (antibody, part only; not given: variable domains and light chain, not shown: another chain or arm of the molecule; small tags and cut ends)
constant: B1 constant with S316Y
B25: feline IgG1a mutant ID No. 333: S428Y, D312P, S434Y, Q311Y, L314K (antibody, part only; not given: Variable domains, not shown: another chain or arm of the molecule; small tags and cut ends)
constant: B1 constant with Y138S, W197Y, S316Y
B26: feline IgG1a mutant ID No. 300: S428Y, Q311W, D312P, S434Y (antibody, part only; not given: Variable domains, not shown: another chain or arm of the molecule)
constant: B1 constant with Y138S, K200L, S316Y

These binders were tested against feline FcRn complex (FcRn-α subunit and β-microglobulin) (feline) (assay: SPR (Biacore), FcRn on SA chip, pH 7.4).

Kd [nM]	Binder
300	B1
24.4	B2
2420	B3
494	B4
1080	B5
79.6	B6
7.28	B7
21.6	B8
4.46	B9
9.95	B10
16700	B11
26.3	B12
6.5	B13
15.6	B14
11	B15
254	B16
11.1	B17
18.9	B18
1480	B19
36.9	B20
1730	B21
6.73	B22
3.29	B23
2720	B24
25.9	B25
182	B26

These binders were tested against feline FcRn complex (FcRn-α subunit and β-microglobulin) (feline) (assay: SPR (Biacore), FcRn on SA chip, pH 6).

Kd [nM]	Binder
1.14	B1
8.21	B2
4.87	B3
1.11	B4
6.96	B5
1.17	B6
0.0359	B7
0.113	B8
0.0192	B9
0.0404	B10
39.7	B11
1.33	B12
0.0353	B13
22.2	B14
0.0128	B15
3.08	B16
0.0072	B17
0.338	B18
0.544	B19
8.02	B20
1.21	B21
0.0168	B22
0.0063	B23
4.01	B24
0.908	B25
0.235	B26
